Source: PMC4749557 (2015)

T1: recombinant Mtgr1 NHR1 domain (residues 98–206) (mouse, UniProt O70374 98-206, H200K, biotin (biotin-acceptor tag))
T1 sequence: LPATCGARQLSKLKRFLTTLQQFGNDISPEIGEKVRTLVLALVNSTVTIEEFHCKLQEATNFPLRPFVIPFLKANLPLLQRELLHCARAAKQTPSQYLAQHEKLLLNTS

B1: Mb(hPRDM14_S4), purified monobody (designed binder)
chain: GSVSSVPTKLEVVAATPTSLLISWDAPAVTVDLYFITYGETGGNSPVQKFTVPGSKSTATISGLKPGVDYTITVYAQYYYRGWYVGSPISINYRT
modifications: biotin
B2: recombinant Prdm14 pre-SET+SET domains (residues 184–373) (domain or fragment)
chain: GFNFTEEELSFVLYGAIASPEHPTDLQHAISGILVPTESSGSNHLHKTLDKDSLQLPEGLCLMQTSFGDVPHFGVFCSDFIAKGVRFGPFRGRVVNASEVKAHRDNSRMWEIFEDGHLSHFIDGKGSGNWMSYVNCARFPKEQNLLAVQHQGQIFYESCRDIQRNQELLVWYGNGYEKFLGVPMNLRVTE
modifications: biotin (biotin-acceptor tag)
B3: human PRDM14 (residues 238–487) (domain or fragment)
chain: LPQTLDKDSLQLPEGLCLMQTVFGEVPHFGVFCSSFIAKGVRFGPFQGKVVNASEVKTYGDNSVMWEIFEDGHLSHFIDGKGGTGNWMSYVNCARFPKEQNLVAVQCQGHIFYESCKEIHQNQELLVWYGDCYEKFLDIPVSLQVTEPGKQPSGPSEESAEGYRCERCGKVFTYKYYRDKHLKYTPCVDKGDRKFPCSLCKRSFEKRDRLRIHILHVHEKHRPHKCSTCGKCFSQSSSLNKHMRVHSGDR
modifications: biotin (biotin-acceptor tag)

Key:
[1] = molecular target: B3
[2] = molecular target: T1, recombinant Mtgr1 NHR1 domain (residues …); assay: Mtgr1 immobilized on beads
[3] = molecular target: T1, recombinant Mtgr1 NHR1 domain (residues …); assay: Prdm14 immobilized on beads
[4] = molecular target: Mb(hPRDM14_S14), purified monobody (biotin)

Kd [1] [nM]	Kd [2] [nM]	Kd [3] [nM]	Kd [4] [nM]	Binder
38	–	–	–	B1
–	11	7.1	1.7	B2
–	–	–	2.8	B3
